Test results taken from patent US20090175866A1, “TREATMENT OF B-CELL MALIGNANCIES” (priority 2004, published 2009).

Columns and labels:
FGFR3 = FGFR3 (Homo sapiens, UniProt P22607); experiment: Affinity and Koff to FGFR3 measured by BIAcore; format: binding
WT FGFR3 = biological target: T1, WT FGFR3 (Homo sapiens, UniProt P22607); experiment: Ligand-stimulated receptor phosphorylation in RCJ-FGFR3 cells (immunoprecipitation, Western blot); format: cell-based
T1 construct: expressed in transfected cells; host or cells: B9 cells
T1 sequence (P22607 23-806): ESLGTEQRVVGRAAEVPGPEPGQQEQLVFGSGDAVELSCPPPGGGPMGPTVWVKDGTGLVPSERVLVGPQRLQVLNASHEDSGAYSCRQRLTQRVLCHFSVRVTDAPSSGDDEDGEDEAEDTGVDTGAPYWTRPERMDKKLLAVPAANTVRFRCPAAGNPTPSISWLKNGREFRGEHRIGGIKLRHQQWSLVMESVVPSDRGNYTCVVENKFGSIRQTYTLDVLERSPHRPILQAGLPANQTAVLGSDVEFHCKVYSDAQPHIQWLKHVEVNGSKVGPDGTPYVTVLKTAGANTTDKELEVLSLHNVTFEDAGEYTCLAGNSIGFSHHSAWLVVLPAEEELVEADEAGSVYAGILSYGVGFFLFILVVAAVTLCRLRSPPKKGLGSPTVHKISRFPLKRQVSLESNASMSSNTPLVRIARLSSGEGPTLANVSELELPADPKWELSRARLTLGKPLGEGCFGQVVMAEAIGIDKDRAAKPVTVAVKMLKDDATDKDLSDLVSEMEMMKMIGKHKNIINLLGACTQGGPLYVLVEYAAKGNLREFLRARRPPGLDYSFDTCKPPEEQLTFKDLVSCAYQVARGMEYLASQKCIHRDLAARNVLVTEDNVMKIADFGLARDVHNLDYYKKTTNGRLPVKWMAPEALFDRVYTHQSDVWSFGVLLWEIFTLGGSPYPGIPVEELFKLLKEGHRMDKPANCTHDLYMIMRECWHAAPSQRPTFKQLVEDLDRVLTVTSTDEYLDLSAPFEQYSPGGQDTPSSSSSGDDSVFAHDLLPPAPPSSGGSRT
Method: FIG. 1C is a photograph of a Western blot showing immune staining of RCJ-FGFR3 cell lysates. RCJ cells were stimulated with FGF (+) with or without pre-incubation with a Fab. Lane 1—no FGF stimulation and no pre-incubation with a Fab. Lane 2—FGF stimulation, no pre-incubation with a Fab. Lane 3—FGF stimulation and pre incubation with a control (C) antibody. Lane 4—FGF stimulation and pre-incubation with an anti-FGFR3 (001) Fab.
Non-transformed rat chondrocyte cell line expressing PGFR3 in an inducible manner (RCJ-FGFR3) has been described previously (Rauchenberger R. et al. J. Biol. Chem. 2003; 278:38194-205). Cells were maintained in α-Minimum Essential Media supplemented with 15% fetal calf serum (FCS), 2 mM L-Glutamine, 100 U/ml penicillin, 100 μg/ml streptomycin, 600 μg/ml G418 (Gibco BRL, Ontario, Canada), 2 μg/ml Tetracyclin (Sigma, Ontario, Canada), and 50 μg/ml HygromycinB (Gibco BRL). […]
Cells were lysed in lysis buffer (50 mM Tris/HCl, pH 8.0, 150 mM […], 0.1 mM ZnCl2, 0.5% Nonidet NP-40, 1 mg/ml, complete protease inhibitor mix (Roche Molecular Biochemicals, Mannheim, Germany)), and clarified by centrifugation at 12,000×g for 15 minutes. The lysates were subjected to immunoprecipitation for 16 hours at 4° C. with anti-FGFR3 (C15) and analyzed by 7.5% sodium dodecyl-polyacrylamide gel electrophoresis (SDS-PAGE) and Western blot with anti-phosphotyrosine (4G10 from R&D). […]

FGFR1 = FGFR1 (Homo sapiens, UniProt P11362); experiment: FGF-stimulated proliferation of FDCP-FGFR1 cells (XTT); format: cell-based; settings: up to 10 fold higher concentrations than the FDCP-FGFR3 IC50
Sequence of FGFR1 (P11362 22-822, species assumed): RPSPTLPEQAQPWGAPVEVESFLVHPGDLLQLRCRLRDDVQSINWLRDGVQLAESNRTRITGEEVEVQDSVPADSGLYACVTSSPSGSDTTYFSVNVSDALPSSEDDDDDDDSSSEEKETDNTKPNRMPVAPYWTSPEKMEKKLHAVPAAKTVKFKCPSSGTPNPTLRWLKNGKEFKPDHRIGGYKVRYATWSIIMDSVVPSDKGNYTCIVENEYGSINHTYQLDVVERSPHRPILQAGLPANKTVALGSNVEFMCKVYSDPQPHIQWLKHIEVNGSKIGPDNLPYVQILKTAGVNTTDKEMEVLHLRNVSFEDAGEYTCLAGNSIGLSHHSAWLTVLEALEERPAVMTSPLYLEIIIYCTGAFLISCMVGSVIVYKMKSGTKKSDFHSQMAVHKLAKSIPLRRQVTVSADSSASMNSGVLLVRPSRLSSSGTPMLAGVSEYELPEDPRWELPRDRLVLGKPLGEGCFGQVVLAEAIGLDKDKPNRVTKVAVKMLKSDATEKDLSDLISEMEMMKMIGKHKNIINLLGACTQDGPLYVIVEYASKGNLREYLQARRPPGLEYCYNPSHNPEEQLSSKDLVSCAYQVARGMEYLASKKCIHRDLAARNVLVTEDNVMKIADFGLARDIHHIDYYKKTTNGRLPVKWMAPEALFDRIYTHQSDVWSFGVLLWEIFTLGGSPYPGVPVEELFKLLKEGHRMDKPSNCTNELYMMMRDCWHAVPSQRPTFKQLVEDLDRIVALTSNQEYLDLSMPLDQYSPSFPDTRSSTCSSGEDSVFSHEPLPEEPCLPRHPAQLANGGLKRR
From the text: FIG. 1D is a graph showing proliferation of FGFR expressing FDCP cells in the presence of increasing concentrations of PRO-001 as determined by XTT analysis. Data are the average of duplicate cultures. The X axis represents concentration of PRO-001 Fab. The Y axis represents % inhibition.
Non-transformed rat chondrocyte cell line expressing PGFR3 in an inducible manner (RCJ-FGFR3) has been described previously (Rauchenberger R. et al. J. Biol. Chem. 2003; 278:38194-205). […]
Cell viability was assessed by 3-(4,5-dimethylthiazol)-2,5-diphenyl tetrazolium (MTT) or (2,3-bis(2-methoxy-4-nitro-5-sulphophenyl)-5-[(phenylamino) carbonyl]-2H-tetrazolium hydroxide (XTT) dye absorbance where indicated. Cells were seeded in 96-well plates at a density of 20,000 (FDCP-1 cells), 5,000 (B9 cells) or 25,000 cells (MM cell lines) per well in culture medium. Cells were incubated in the absence or presence of one of the following cytokines: 10 ng/ml FGF9 and 5 μg/ml heparin, 1% murine IL-6, 50 ng/ml IGF-1 or 50 ng/ml human IL-6 where indicated and increasing concentrations of PRO-001, control antibody (purified human Fab) or 100 nM PD173074. […]

UTMC2 cells = experiment: Apoptosis of UTMC2 cells co-cultured with bone marrow stroma cells (annexin V); format: cell-based, human; settings: 5 μg/ml, 72 hours (FIG. 5 legend)
Method: FIG. 5 is a graph showing apoptosis of UTMC2 cells in response to treatment with PRO-001 in the presence of BMSCs (stroma). BMSCs alone (stroma) or BMSCs together with UTMC2 cells (stroma/UTMC2) were cultured with control antibody or 5 μg/ml PRO-001 for 72 hours and apoptosis was assessed by means of a flow cytometry assay of annexin V binding and propidium iodide exclusion. Values represent means of quadruplicate cultures ±SD.
For studies of apoptosis, cells were seeded at an initial density of 2.5×10^5/ml in 6 well plates coated with BMSCs and supplemented with control (vehicle or antibody) or 5 μg/ml PRO-001 and cultured for […]. Apoptosis was determined by Annexin V staining (Boehringer Mannheim, Indianapolis, Ind.) and analyzed by flow cytometry. Annexin V is a protein that binds specifically to phosphotidyl-serine in the cell membrane. Binding occurs once the membrane has started to break down and the phospholipids are released into the extracellular media.

Sequence of FGFR3 (P22607 23-806): as the sequence (P22607 23-806) above

B1: PRO-001: human anti-FGFR3 Fab from HuCAL library; VH-CDR3 SEQ ID NO:1, VL-CDR3 SEQ ID NO:10; VH SEQ ID NO:19, VL SEQ ID NO:28 (antibody, V domains shown)
VH: QVQLQQSGPGLVKPSQTLSLTCAISGDSVSSNSAAWNWIRQSPGRGLEWLGRTYYRSKWYNDYAVSVKSRITINPDTSKNQFSLQLNSVTPEDTAVYYCARSYYPDFDYWGQGTLVTVSS
VL: DIELTQPPSVSVAPGQTARISCSGDALGDKYASWYQQKPGQAPVLVIYDDSDRPSGIPERFSGSNSGNTATLTISGTQAEDEADYYCQSYDGPDLWVFGGGTKLTVLGQ
- Kd (FGFR3): 1.5 nM
- Downstream JNK phosphorylation (WT FGFR3): reduction in downstream JNK phosphorylation
- Ligand-stimulated autophosphorylation of FGFR3 (WT FGFR3; anti-phosphotyrosine immunoblot): inhibited
- Proliferation of FDCP-1 cells expressing FGFR1 (FGFR1): unaffected
- Apoptosis of UTMC2 cells co cultured with BMSC (UTMC2 cells): induces a high level of apoptosis
